The data set deals with the molecule itself. Description: cross-linking.

This note sets out measurements from article doi:10.1101/2020.09.25.312835 (bioRxiv, 2020).

B1: C-terminal fragment of bovine ROS-GC1 comprising the αHD and CD (aa 814-1110) (domain or fragment, UniProt P55203 814-1110, looked up)
chain: NKGRKMNIIDSMLRMLEQYSSNLEDLIRERTEELELEKQKTDRLLTQMLPPSVAEALKMGTPVEPEYFEEVTLYFSDIVGFTTISAMSEPIEVVDLLNDLYTLFDAIIGSHDVYKVETIGDAYMVASGLPQRNGHRHAAEIANMALDILSAVGTFRMRHMPEVPVRIRIGLHSGPCVAGVVGLTMPRYCLFGDTVNTASAMESTGLPYRIHVNRSTVQILSALNEGFLTEVRGRTELKGKGAEETYWLVGRRGFNKPIPKPPDLQPGASNHGISLHEIPPDRRQKLEKARPGQFSGK
Consider B1, for which the binding result was “binds”.
